# Test results published in patent publication US20030138848A1, “3D structure of polypeptides containing a TPR-structure motif with chaperone-binding function, crystals thereof and compounds for inhibition of said polypeptides” (priority 2000, published 2003).
# Ends that are not written are not given here.
# Tests used:
# [1] = target: T1, TPR1 domain of the Hop protein (Homo sapiens, UniProt P31948); assay: Isothermal titration calorimetry, binding to TPR1 domain of Hop; conditions: ITC at 25° C.
# T1 construct: Codons 1-118 (TPR1) and 223-352 (TPR2A) of human Hop protein were cloned; hexahistidine (TEV-cleavable) (N, cleaved yes); made in house; host or cells: E. coli BL21 (DE3)
# T1 sequence (P31948 1-118): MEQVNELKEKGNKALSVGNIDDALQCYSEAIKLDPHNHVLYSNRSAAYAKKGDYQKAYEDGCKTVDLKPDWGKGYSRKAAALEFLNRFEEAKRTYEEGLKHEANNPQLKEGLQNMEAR
# Description: (§1) FIG. 6 is a plotting of the thermo-dynamic analysis of the interaction of TPR1 and TPR2A with the C-terminal sequences of Hsp70 and Hsp90. […] The sequence […] corresponds with the 12 C-terminal amino acid residues of Hsc70. […] corresponds with the 12 C-terminal amino acid residues of Hsp90.
# (§2) 40-50 aliquots of 5•μl peptide solution (7.5 mM-15 mM) were titrated at 25° C. by injection into a 1.36 ml TPR1 (TPR2A) solution (450•M-950•M) into the chamber. Alternatively, a solution of 3 mM TPR1 (TPR2A) in 180•M C70 (C90) solution was titrated in the chamber. […] Typically, the injections were continued past the saturation limits in order to be able to determine the heat of the ligand solution. After subtracting the solution heat, the calorimetric data was analysed, where an assessment software was used, which is provided by the manufacturer (version 2.9; MicroCal Software, Inc.).
# [2] = target: T2, TPR2A domain of the Hop protein (Homo sapiens, UniProt P31948); assay: Isothermal titration calorimetry, binding to TPR2A domain of Hop; conditions: ITC at 25° C.
# T2 construct: Codons 1-118 (TPR1) and 223-352 (TPR2A) of human Hop protein were cloned; hexahistidine (TEV-cleavable) (N, cleaved yes); made in house; host or cells: E. coli BL21 (DE3)
# T2 sequence (P31948 223-352): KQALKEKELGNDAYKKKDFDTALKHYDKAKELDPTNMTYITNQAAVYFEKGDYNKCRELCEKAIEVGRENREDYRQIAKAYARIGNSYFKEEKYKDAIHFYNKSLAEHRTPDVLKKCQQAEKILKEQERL
# Description: as §1, §2
# [3] = target: T3, TPR1 domain of human Hop protein (codons 1-118) (human, UniProt P31948 4-118); assay: ITC, 25 °C
# T3 construct: Expressed in E. coli with a removable N-terminal His6 tag, which was cleaved with TEV; It could not be checked that the entry is exactly residues 1-118; also called N-terminal TPR domain of Hop
# T3 sequence (P31948 other isoform, or with tags, fused parts or gaps limits assumed): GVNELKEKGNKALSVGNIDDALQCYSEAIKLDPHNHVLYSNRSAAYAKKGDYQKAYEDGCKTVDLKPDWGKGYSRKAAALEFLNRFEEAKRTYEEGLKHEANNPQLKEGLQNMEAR
# Description: as §1
# (§3) 40-50 aliquots of 5•μl peptide solution (7.5 mM-15 mM) were titrated at 25° C. by injection into a 1.36 ml TPR1 (TPR2A) solution (450•M-950•M) into the chamber. Alternatively, a solution of 3 mM TPR1 (TPR2A) in 180•M C70 (C90) solution was titrated in the chamber. The peptides were dissolved in and the proteins were dialysed against the buffer G (25 mM, pH 7.5, 100 mM Kac, 5 mM MgAc₂). Typically, the injections were continued past the saturation limits in order to be able to determine the heat of the ligand solution. After subtracting the solution heat, the calorimetric data was analysed, where an assessment software was used, which is provided by the manufacturer (version 2.9; MicroCal Software, Inc.).
# [4] = target: T4, TPR2A domain of human Hop protein (codons 223-352) (human, UniProt P31948 225-352); assay: ITC, 25 °C
# T4 construct: Expressed in E. coli, His6 tag cleaved with TEV; A selenomethionine-labelled form was made for MAD phasing; also called TRP2A
# T4 sequence (P31948 other isoform, or with tags, fused parts or gaps limits assumed): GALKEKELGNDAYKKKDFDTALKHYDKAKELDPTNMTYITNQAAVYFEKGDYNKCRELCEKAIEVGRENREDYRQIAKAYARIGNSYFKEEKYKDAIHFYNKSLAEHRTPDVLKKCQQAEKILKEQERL
# Description: as §1, §3
molecule,measurement,setting,value
"C70: C-terminal fragment of human Hsp70 (codons 382-641), 25 kDa domain",stoichiometry N,"[1]; binding to TPR1, listed as 25 kDa fragment of human Hsp70",~1
"C90: C-terminal domain of human Hsp90 (codons 625-732), 12 kDa fragment including dimerisation domain and authentic C-terminal","binding to TPR1, result in words",[1],"weak, non-specific binding"
same,stoichiometry factor,[2],~1
"GASSGPTIEEVD [Hsp70 Dodekamer, C-terminal dodecamer of Hsp70]","binding to TPR1, result in words",[1],same affinities
"GSGGPTIEEVD [Hsc70 Dodekamer, peptide of the 12 C-terminal amino acid residues of Hsc70]","binding to TPR1, result in words",[1],same affinities
Ac-GPTIEEVD (also called structured octamer peptide) [Hsp70 peptide GPTIEEVD],fold increase in affinity (against the EEVD motif alone),[3],20 fold
Ac-EEVD (also called EEVD peptide; EEVD motif) [tetrapeptide EEVD],Kd,[3],~300 µM
same,Kd,[4],90 µM
Ac-PTIEEVD [C-terminal heptamer peptide of Hsc70],Kd,[3],15 to 20 µM
